We go through two molecules from patent US20230042095A1 (AstraZeneca / MedImmune, published 2023).

One experiment concerns the target T1, huIL-6 (E. coli) (human, UniProt P05231 30-212, limits assumed).
T1 construct: also called human IL-6
The experiment can be described thus: BLI (Octet), h5D8 amine-coupled to AR2G sensor, cytokine as analyte. (In general: Biolayer interferometry detects binding as a change in optical thickness at a sensor tip.)

Experiment [1] deals with LIF acting on U251 / U-251 glioma cells (endogenous LIF) (human, UniProt P15018 23-202). The experiment can be described thus: cell-based or functional assay.
A further experiment has as its target T2, recombinant human LIFR (human, UniProt P42702 45-833, limits assumed).
T2 construct: also called hLIFR; LIF receptor
T2 sequence (looked up): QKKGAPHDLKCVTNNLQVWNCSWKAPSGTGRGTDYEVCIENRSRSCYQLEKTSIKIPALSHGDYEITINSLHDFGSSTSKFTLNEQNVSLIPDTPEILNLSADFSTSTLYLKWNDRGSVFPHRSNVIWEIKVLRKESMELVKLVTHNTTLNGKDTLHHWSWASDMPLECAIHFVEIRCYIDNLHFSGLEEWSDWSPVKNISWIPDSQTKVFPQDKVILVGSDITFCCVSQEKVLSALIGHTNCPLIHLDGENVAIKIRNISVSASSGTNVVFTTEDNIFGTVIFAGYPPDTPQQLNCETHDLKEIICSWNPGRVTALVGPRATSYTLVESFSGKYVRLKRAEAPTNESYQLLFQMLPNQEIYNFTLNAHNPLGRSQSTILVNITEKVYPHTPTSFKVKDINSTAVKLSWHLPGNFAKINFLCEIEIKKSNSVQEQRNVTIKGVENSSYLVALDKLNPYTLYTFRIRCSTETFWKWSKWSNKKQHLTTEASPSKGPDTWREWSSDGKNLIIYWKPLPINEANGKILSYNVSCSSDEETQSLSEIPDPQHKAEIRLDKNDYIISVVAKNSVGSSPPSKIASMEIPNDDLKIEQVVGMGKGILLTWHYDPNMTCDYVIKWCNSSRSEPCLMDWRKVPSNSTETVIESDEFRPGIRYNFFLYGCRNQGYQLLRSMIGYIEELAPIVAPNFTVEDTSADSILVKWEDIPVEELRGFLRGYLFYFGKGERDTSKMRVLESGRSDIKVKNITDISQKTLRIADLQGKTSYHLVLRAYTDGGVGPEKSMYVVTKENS
The experiment can be described thus: BLI (Octet RED96), control experiment, h5D8 on anti-human Fc sensor.

For another experiment, the target named is T3, recombinant human gp130 (human, UniProt P40189 23-619, limits assumed).
T3 sequence (looked up): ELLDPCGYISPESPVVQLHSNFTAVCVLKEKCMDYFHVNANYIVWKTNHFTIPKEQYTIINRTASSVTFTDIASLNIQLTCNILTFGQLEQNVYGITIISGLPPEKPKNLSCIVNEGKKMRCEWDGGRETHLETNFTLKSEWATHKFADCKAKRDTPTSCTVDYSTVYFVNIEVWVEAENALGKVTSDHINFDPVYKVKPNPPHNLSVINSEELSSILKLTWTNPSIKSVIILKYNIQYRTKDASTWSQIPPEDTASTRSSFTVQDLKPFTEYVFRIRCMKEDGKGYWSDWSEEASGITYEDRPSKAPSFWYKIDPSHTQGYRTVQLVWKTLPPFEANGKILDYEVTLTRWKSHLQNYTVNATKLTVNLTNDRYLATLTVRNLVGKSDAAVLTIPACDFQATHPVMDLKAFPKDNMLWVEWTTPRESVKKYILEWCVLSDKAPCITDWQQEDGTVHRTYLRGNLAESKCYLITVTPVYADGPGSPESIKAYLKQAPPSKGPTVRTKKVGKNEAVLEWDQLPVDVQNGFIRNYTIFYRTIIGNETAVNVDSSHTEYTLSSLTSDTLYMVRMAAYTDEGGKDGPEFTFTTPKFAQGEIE
The experiment is described as follows: ELISA of mAb/LIF complexes on immobilized gp130, read through the antibody part (B09, anti-rat IgG-peroxidase). On the technique in general: In an ELISA, binding on a coated surface is turned into a signal by an enzyme label.

LIF acting on U251 / U-251 glioma cells (endogenous LIF), sequence (P15018 23-202 limits assumed): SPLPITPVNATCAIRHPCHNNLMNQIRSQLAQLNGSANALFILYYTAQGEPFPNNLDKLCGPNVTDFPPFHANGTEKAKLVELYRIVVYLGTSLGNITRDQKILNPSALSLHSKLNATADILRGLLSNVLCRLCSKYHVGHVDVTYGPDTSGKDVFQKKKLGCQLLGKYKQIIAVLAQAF
T1 sequence (P05231 30-212 limits assumed): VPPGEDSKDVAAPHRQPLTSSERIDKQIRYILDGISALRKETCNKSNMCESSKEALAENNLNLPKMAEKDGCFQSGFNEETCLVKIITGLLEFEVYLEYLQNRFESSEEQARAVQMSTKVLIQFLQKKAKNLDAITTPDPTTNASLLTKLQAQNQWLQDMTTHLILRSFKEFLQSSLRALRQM
Procedure for huIL-6 (E. coli): Kinetics experiments were then performed with the following Dip and Read steps at 30° C., 1000 rpm: vi) 60 seconds Baseline in 1× kinetics buffer; vii) 180 seconds Association of appropriate serial dilutions of a cytokine in 1× kinetics buffer; viii) 300 seconds Dissociation in 1× kinetics buffer; ix) Three Regeneration/Neutralization cycles alternating between 10 mM glycine pH 2.0 and 1× kinetics buffer respectively (5 seconds in each for 3 cycles). Following regeneration, the biosensors were reused for subsequent binding analyses.

B1: h5D8 (humanized 5D8 comprising H2 and L2) (antibody, human IgG1, kappa, V domains shown)
VH: QVQLQESGGGLVKPGGSLRLSCAASGFTFSHAWMHWVRQAPGKGLEWVGQIKAKSDDYATYYAESVKGRFTISRDDSKNTLYLQMNSLKTEDTAVYYCTCWEWDLDFWGQGTMVTVSS
VL: DIVMTQTPLSSPVTLGQPASISCRSSQSLLDSDGHTYLNWLQQRPGQPPRLLIYSVSNLESGVPDRFSGSGAGTDFTLKISRVEAEDVGVYYCMQATHAPPYTFGQGTKLEIKR
notes: also called H2L2; G (H2L2)
Take B1: the binding result with huIL-6 (E. coli) and in the experiment with recombinant human LIFR was “no binding” each time. In experiment [1], the “IC50 for biological inhibition (pSTAT3), serum starved U-251 cells” value worked out at 490 picomolar.

B2: human LIF (source not stated) (ligand)
chain: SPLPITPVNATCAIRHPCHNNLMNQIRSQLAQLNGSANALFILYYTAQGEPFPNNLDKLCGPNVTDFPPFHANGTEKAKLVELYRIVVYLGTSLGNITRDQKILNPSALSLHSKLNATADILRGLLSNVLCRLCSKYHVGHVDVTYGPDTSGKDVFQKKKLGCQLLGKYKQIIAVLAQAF
notes: also called hLIF; recombinant human LIF protein
With B2, the binding result in the experiment with recombinant human gp130 is listed as “binds”.
